Test in all cases: cell-based or functional assay
Assay [1] deals with E. coli expressed recombinant human microplasmin Arg610Ala (human) (UniProt P00747).
Assay [2] deals with E. coli expressed recombinant human microplasmin Ser608Ala (human) (UniProt P00747).
Assay [3] concerns the target E. coli expressed recombinant human microplasmin Lys607Ala (human) (UniProt P00747).
In assay [4] the target is E. coli expressed recombinant human microplasmin Phe587Ala (human) (UniProt P00747).
The target in assay [5] is E. coli expressed recombinant human microplasmin Arg582Ala (human) (UniProt P00747).
Assay [6] deals with E. coli expressed recombinant human microplasmin Glu641Ala (human) (UniProt P00747).
Assay [7] addresses E. coli expressed recombinant human microplasmin, wild type (human) (UniProt P00747).
Assay [8] addresses E. coli expressed recombinant human microplasmin Met585Ala (human) (UniProt P00747).
The target in assay [9] is E. coli expressed recombinant human microplasmin Gly739Ala (human) (UniProt P00747).
The target of assay [10] is E. coli expressed recombinant human microplasmin K642A (Table 3) (human) (UniProt P00747).
Assay [11] addresses E. coli expressed recombinant human microplasmin Pro642Ala (human) (UniProt P00747).

B1: α2-antiplasmin (protein, UniProt P08697 40-491, looked up)
chain: NQEQVSPLTLLKLGNQEPGGQTALKSPPGVCSRDPTPEQTHRLARAMMAFTADLFSLVAQTSTCPNLILSPLSVALALSHLALGAQNHTLQRLQQVLHAGSGPCLPHLLSRLCQDLGPGAFRLAARMYLQKGFPIKEDFLEQSEQLFGAKPVSLTGKQEDDLANINQWVKEATEGKIQEFLSGLPEDTVLLLLNAIHFQGFWRNKFDPSLTQRDSFHLDEQFTVPVEMMQARTYPLRWFLLEQPEIQVAHFPFKNNMSFVVLVPTHFEWNVSQVLANLSWDTLHPPLVWERPTKVRLPKLYLKHQMDLVATLSQLGLQELFQAPDLRGISEQSLVVSGVQHQSTLELSEVGVEAAAATSIAMSRMSLSSFSVNRPFLFFIFEDTTGLPLFVGSVRNPNPSAPRELKEQQDSPGNKDFLQSLKGFPRGDKLFGPDLKLVPPMEEDYPQFGSPK
Regarding B1, the IC50 (relative to the µPlm WT enzyme) (fold relative to WT) in assay [1] was 1.7; in assay [2] it was 1.2; in [3] it was 1; in assay [4] it was 3.9; in assay [5], 1.6; in assay [6], 1.6. In addition, the IC50 (relative to the µPlm WT enzyme) (fold relative to WT) in [7] stood at 1; in assay [8] it was 1.2; in assay [10], 1. Moreover, the activity remaining in the presence of α2-AP (% activity remaining) in [4] was 50. The α2-AP inhibition of µPlm activity in assay [9] is > 400 nM. In addition, the IC50 of α2-AP inhibition (fold of WT) (fold relative to WT) in assay [11] came to 2.

Values taken from patent publication US20250090644A1.
